The labels stand for the following.
B1: KLHL14 (parent)
chain: CAVLDDSIYLVGGYSWSMGAYKSS
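Also: lentivirally expressed fusions sorted by FACS into six bins by GFP to DsRed ratio, PSI derived from sequencing read proportions per bin multiplied by bin number.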

The data set covers variants of B1. As to the kind of experiment: protein stability index of a GFP-peptide fusion (GPS, HEK-293T) (PSI 1-6); higher = more stable. To be noted: c terminus: a fixed tail appended.
In the case of CAVLDDSIYLHGGYSWSMGAYKSS [V11H], the protein stability index turned out to be 1.88.

For CAVLDDSIYLTGGYSWSMGAYKSS [V11T], the protein stability index turned out to be 1.83.

Consider CAVLDDSIYLLGGYSWSMGAYKSS [V11L], for which the protein stability index is 1.72.

With CAVLDDSIYLAGGYSWSMGAYKSS [V11A], the protein stability index is 1.94.

Turning to CAVLDDSIYLCGGYSWSMGAYKSS [V11C], the protein stability index is 1.91.

As for CAVLDDSIYLRGGYSWSMGAYKSS [V11R], the protein stability index is 1.24.

Regarding AAVLDDSIYLVGGYSWSMGAYKSS [C1A], the protein stability index was 1.72.

On to KAVLDDSIYLVGGYSWSMGAYKSS [C1K], for which the protein stability index turned out to be 2.42.

As for GAVLDDSIYLVGGYSWSMGAYKSS [C1G], the protein stability index is 2.

As to NAVLDDSIYLVGGYSWSMGAYKSS [C1N], the protein stability index was determined as 1.74.

Take QAVLDDSIYLVGGYSWSMGAYKSS [C1Q]: the protein stability index came to 1.73.

As to RAVLDDSIYLVGGYSWSMGAYKSS [C1R], the protein stability index stood at 2.03.

Consider YAVLDDSIYLVGGYSWSMGAYKSS [C1Y], for which the protein stability index was determined as 1.82.

As for IAVLDDSIYLVGGYSWSMGAYKSS [C1I], the protein stability index was 2.83.

Turning to TAVLDDSIYLVGGYSWSMGAYKSS [C1T], the protein stability index stood at 1.43.

For the variant LAVLDDSIYLVGGYSWSMGAYKSS [C1L], the protein stability index stood at 2.09.

In the case of WAVLDDSIYLVGGYSWSMGAYKSS [C1W], the protein stability index was determined as 2.63.

As for FAVLDDSIYLVGGYSWSMGAYKSS [C1F], the protein stability index was found to be 3.37.

On to EAVLDDSIYLVGGYSWSMGAYKSS [C1E], for which the protein stability index is 1.3.

Turning to CAVLDDQIYLVGGYSWSMGAYKSS [S7Q], the protein stability index stood at 3.47.

As for CAVLDDLIYLVGGYSWSMGAYKSS [S7L], the protein stability index turned out to be 3.32.

On to CAVLDDYIYLVGGYSWSMGAYKSS [S7Y], for which the protein stability index turned out to be 3.75.

In the case of CAVLDDPIYLVGGYSWSMGAYKSS [S7P], the protein stability index worked out at 2.54.

Consider CAVLDDNIYLVGGYSWSMGAYKSS [S7N], for which the protein stability index came out at 2.59.

For the variant CAVLDDTIYLVGGYSWSMGAYKSS [S7T], the protein stability index was 1.52.

With CAVLDDSIYLVGGYSTSMGAYKSS [W16T], the protein stability index is 1.74.

With CAVLDDSIYLVGGYSPSMGAYKSS [W16P], the protein stability index is 2.38.

On to CAVLDDSIYLVGGYSYSMGAYKSS [W16Y], for which the protein stability index came out at 2.02.

Take CAVLDDSIYLVGGYSASMGAYKSS [W16A]: the protein stability index amounted to 1.78.

As to CAVLDDSIYLVGGYSESMGAYKSS [W16E], the protein stability index amounted to 2.53.

Take CAVLDDSIYLVGGYSHSMGAYKSS [W16H]: the protein stability index stood at 1.79.

Take CAVLDDSIYLVGGYSISMGAYKSS [W16I]: the protein stability index was found to be 2.35.

Consider CAVLDDSIYLVGGYSQSMGAYKSS [W16Q], for which the protein stability index is 1.8.

On to CAVLDDSIYLVGGYSRSMGAYKSS [W16R], for which the protein stability index was determined as 1.78.

CAVLDDSIYLVGGLSWSMGAYKSS [Y14L]: the protein stability index was 1.86.

Turning to CAVLDDSIYLVGGRSWSMGAYKSS [Y14R], the protein stability index was found to be 1.74.

Take CAVLDDSIYLVGGASWSMGAYKSS [Y14A]: the protein stability index was 1.55.

With CAVLDDSIYLVGGDSWSMGAYKSS [Y14D], the protein stability index stood at 2.23.

Consider CAVLDDSIYLVGGMSWSMGAYKSS [Y14M], for which the protein stability index is 2.42.

Turning to CAVLDDSIYLVGGGSWSMGAYKSS [Y14G], the protein stability index is 1.2.

CAVLDDSIYLVGGHSWSMGAYKSS [Y14H]: the protein stability index is 1.83.

As for CAVLDDSIYLVGGYSWSMAAYKSS [G19A], the protein stability index turned out to be 2.33.

On to CAVLDDSIYLVGGYSWSMPAYKSS [G19P], for which the protein stability index stood at 1.96.

As to CAVLDDSIYLVGGYSWSMWAYKSS [G19W], the protein stability index amounted to 3.29.

As to CAVLDDSIYLVGGYSWSMSAYKSS [G19S], the protein stability index was found to be 2.83.

For CAVLDDSIYLVGGYSWSMEAYKSS [G19E], the protein stability index came to 1.22.

For the variant CAVLDDSIYLVGGYSWSMGAYQSS [K22Q], the protein stability index is 1.44.

Turning to CAVLDDSIYLVGGYSWSMGAYISS [K22I], the protein stability index stood at 2.6.

Take CAVLDDSIYLVGGYSWSMGAYNSS [K22N]: the protein stability index is 2.69.

In the case of CAVLDDSIYLVGGYSWSMGAYRSS [K22R], the protein stability index was 3.14.

As to CAVLDDSIYLVGGYSWSMGAYHSS [K22H], the protein stability index was 3.04.

As to CAVLDDSIYLVGGYSWSMGAYMSS [K22M], the protein stability index amounted to 4.12.

Turning to CAVLDDSIYLVGGYSWSMGAYGSS [K22G], the protein stability index was found to be 2.66.

As to CAVGDDSIYLVGGYSWSMGAYKSS [L4G], the protein stability index came to 1.55.

Turning to CAVCDDSIYLVGGYSWSMGAYKSS [L4C], the protein stability index is 1.78.

As for CAVMDDSIYLVGGYSWSMGAYKSS [L4M], the protein stability index was 2.96.

Turning to CAVYDDSIYLVGGYSWSMGAYKSS [L4Y], the protein stability index turned out to be 2.19.

CAVHDDSIYLVGGYSWSMGAYKSS [L4H]: the protein stability index is 2.12.

CAVDDDSIYLVGGYSWSMGAYKSS [L4D]: the protein stability index was found to be 2.19.

Turning to CAVTDDSIYLVGGYSWSMGAYKSS [L4T], the protein stability index worked out at 2.78.

Take CAVNDDSIYLVGGYSWSMGAYKSS [L4N]: the protein stability index turned out to be 3.26.

CEVLDDSIYLVGGYSWSMGAYKSS [A2E]: the protein stability index was 2.37.

In the case of CLVLDDSIYLVGGYSWSMGAYKSS [A2L], the protein stability index stood at 2.18.

As to CFVLDDSIYLVGGYSWSMGAYKSS [A2F], the protein stability index amounted to 2.84.

As to CIVLDDSIYLVGGYSWSMGAYKSS [A2I], the protein stability index came out at 2.13.

With CWVLDDSIYLVGGYSWSMGAYKSS [A2W], the protein stability index was found to be 2.5.

Consider CMVLDDSIYLVGGYSWSMGAYKSS [A2M], for which the protein stability index worked out at 3.27.

Consider CNVLDDSIYLVGGYSWSMGAYKSS [A2N], for which the protein stability index is 2.05.

Regarding CHVLDDSIYLVGGYSWSMGAYKSS [A2H], the protein stability index is 1.85.

As for CGVLDDSIYLVGGYSWSMGAYKSS [A2G], the protein stability index is 1.04.

CAVLDDSIYLVGGYSWSMGAYKSQ [S24Q]: the protein stability index amounted to 2.2.

CAVLDDSIYLVGGYSWSMGAYKSE [S24E]: the protein stability index was found to be 2.32.

As to CAVLDDSIYLVGGYSWSMGAYKSI [S24I], the protein stability index was found to be 3.41.

For the variant CAVLDDSIYLVGGYSWSMGADKSS [Y21D], the protein stability index amounted to 2.43.

Turning to CAVLDDSIYLVGGYSWSMGAAKSS [Y21A], the protein stability index worked out at 2.91.

As for CAVLDDSIYLVGGYSWSMGAKKSS [Y21K], the protein stability index came out at 2.14.

Consider CAVLDDSIYLVGGYSWSMGAGKSS [Y21G], for which the protein stability index was determined as 1.08.

CAVLDDSIYLVGGYSWSMGAVKSS [Y21V]: the protein stability index was found to be 2.6.

Consider CAVLDDSIYLVGGYSWSMGANKSS [Y21N], for which the protein stability index came out at 2.25.

With CAVLDDSIYLVGGYSWSMGALKSS [Y21L], the protein stability index worked out at 2.68.

With CAVLDDSIYLVGGYIWSMGAYKSS [S15I], the protein stability index is 2.56.

With CAVLDDSIYLVGGYPWSMGAYKSS [S15P], the protein stability index came to 2.77.

As to CAVLDDSIYLVGGYFWSMGAYKSS [S15F], the protein stability index amounted to 2.58.

Regarding CAVLDDSIYLVGGYQWSMGAYKSS [S15Q], the protein stability index was 2.44.

For the variant CAVLDDSIYLVGGYRWSMGAYKSS [S15R], the protein stability index worked out at 1.86.

In the case of CAVLDDSIYLVGGYNWSMGAYKSS [S15N], the protein stability index came to 2.28.

Consider CAVLDDSNYLVGGYSWSMGAYKSS [I8N], for which the protein stability index came out at 1.65.

Turning to CAVLDDSAYLVGGYSWSMGAYKSS [I8A], the protein stability index is 2.44.

In the case of CAVLDDSFYLVGGYSWSMGAYKSS [I8F], the protein stability index is 2.55.

Take CAVLDDSRYLVGGYSWSMGAYKSS [I8R]: the protein stability index amounted to 1.64.

In the case of CAVLDDSDYLVGGYSWSMGAYKSS [I8D], the protein stability index was 2.22.

Turning to CAVLDDSYYLVGGYSWSMGAYKSS [I8Y], the protein stability index was found to be 2.96.

As to CAVLDDSQYLVGGYSWSMGAYKSS [I8Q], the protein stability index was determined as 1.11.

CAVLMDSIYLVGGYSWSMGAYKSS [D5M]: the protein stability index was determined as 4.24.

Values taken from the supplement of paper PMC10567573.
